Results as given in PMC6173638 (Cell, 2018).
Each block holds one molecule with its values, some of them ahead of it.

Assays:
[1] = molecular target: Bosea sp. Root381 GapR(L48M-I54M-L73M), selenomethionine substituted (Bosea sp. Root381); assay: crystal structure
[2] = molecular target: Bosea sp. Root381 GapR, wild type (Bosea sp. Root381); assay: crystal structure
GapR(11-89) L83M SeMet = molecular target: T1, GapR(11-89) L83M SeMet (Caulobacter crescentus, UniProt B8H4R9 11-89, L83M); assay: X-ray crystallography
T1 sequence: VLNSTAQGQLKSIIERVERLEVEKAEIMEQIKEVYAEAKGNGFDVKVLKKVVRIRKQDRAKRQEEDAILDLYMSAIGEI

GapR(11-89) WT = molecular target: T2, GapR(11-89) WT (Caulobacter crescentus, UniProt B8H4R9 11-89); assay: X-ray crystallography
T2 sequence: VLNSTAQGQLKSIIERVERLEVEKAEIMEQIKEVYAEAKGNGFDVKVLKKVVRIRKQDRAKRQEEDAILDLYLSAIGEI

SEC-MALS = molecular target: the molecule itself; assay: SEC-MALS
crystal structure = molecular target: the molecule itself; assay: crystal structure

- stoichiometry N [1]: 2
Molecule: Bosea sp. Root381 GapR(L48M-I54M-L73M), selenomethionine substituted (natural protein)

- stoichiometry N [2]: 4
Molecule: Bosea sp. Root381 GapR, wild type (natural protein)

B1: AT-rich crystallization 11-mer (dsDNA)
DNA 1: TTAAAATTAAA
DNA 2: TTTAATTTTAA
- binding result (GapR(11-89) L83M SeMet): binds
- binding result (GapR(11-89) WT): binds

B2: Caulobacter crescentus GapR, untagged (natural protein, UniProt B8H4R9 1-89, looked up)
chain: MADDAIPHTDVLNSTAQGQLKSIIERVERLEVEKAEIMEQIKEVYAEAKGNGFDVKVLKKVVRIRKQDRAKRQEEDAILDLYLSAIGEI
- stoichiometry N (SEC-MALS): 2

B3: C. crescentus GapR(11-89) L83M, selenomethionine substituted (domain or fragment, Caulobacter crescentus, UniProt B8H4R9 11-89, looked up)
chain: VLNSTAQGQLKSIIERVERLEVEKAEIMEQIKEVYAEAKGNGFDVKVLKKVVRIRKQDRAKRQEEDAILDLYMSAIGEI
modifications: selenomethionine substituted
- stoichiometry N (crystal structure): 4
